The text below walks through data of patent US6670114 (N V INNOGENETICS, dated 2003).

The assay concerns the target T1, LDL (purified human low-density lipoprotein, Cappel) (human, UniProt P04114 28-4563).
T1 construct: This is a lipoprotein particle, not a single protein; also called solid phase LDL
Nature of the assay: ELISA: biotinylated envelope protein on coated LDL, streptavidin-peroxidase. (In general: ELISA stands for enzyme-linked immunosorbent assay.)

B1: E2s (recombinant truncated HCV envelope protein E2, aa 384-673, genotype 1b) (other)
chain: HTRVSGGAAASNTRGLVSLFSPGSAQKIQLVNTNGSWHINRTALNCNDSLQTGFFAALFYKHKFNSSGCPERLASCRSIDKFAQGWGPLTYTEPNSSDQRPYCWHYAPRPCGIVPASQVCGPVYCFTPSPVVVGTTDRFGVPTYNWGANDSDVLILNNTRPPRGNWFGCTWMNGTGFTKTCGGPPCNIGGAGNNTLTCPTDCFRKHPEATYARCGSGPWLTPRCMVHYPYRLWHYPCTVNFTIFKVRMYVGGVEHRFGAACNWTRGERCDLEDRDRSELSPLLLSTTEWQ
modifications: biotinylated (sites not given)
notes: also called biotinylated E2
Consider B1, for which the binding result is “no binding”.
